Data published in IntAct's records for PubMed 21666598.

B1: Shugoshin 2 (Homo sapiens), Q562F6 (parent)
chain: MECPVMETGSLFTSGIKRHLKDKRISKTTKLNVSLASKIKTKILNNSSIFKISLKHNNRALAQALSREKENSRRITTEKMLLQKEVEKLNFENTFLRLKLNNLNKKLIDIEALMNNNLITAIEMSSLSEFHQSSFLLSASKKKRISKQCKLMRLPFARVPLTSNDDEDEDKEKMQCDNNIKSKTLPDIPSSGSTTQPLSTQDNSEVLFLKENNQNVYGLDDSEHISSIVDVPPRESHSHSDQSSKTSLMSEMRNAQSIGRRWEKPSPSNVTERKKRGSSWESNNLSADTPCATVLDKQHISSPELNCNNEINGHTNETNTEMQRNKQDLPGLSSESAREPNAECMNQIEDNDDFQLQKTVYDADMDLTASEVSKIVTVSTGIKKKSNKKTNEHGMKTFRKVKDSSSEKKRERSKRQFKNSSDVDIGEKIENRTERSDVLDGKRGAEDPGFIFNNEQLAQMNEQLAQVNELKKMTLQTGFEQGDRENVLCNKKEKRITNEQEETYSLSQSSGKFHQESKFDKGQNSLTCNKSKASRQTFVIHKLEKDNLLPNQKDKVTIYENLDVTNEFHTANLSTKDNGNLCDYGTHNILDLKKYVTDIQPSEQNESNINKLRKKVNRKTEIISGMNHMYEDNDKDVVHGLKKGNFFFKTQEDKEPISENIEVSKELQIPALSTRDNENQCDYRTQNVLGLQKQITNMYPVQQNESKVNKKLRQKVNRKTEIISEVNHLDNDKSIEYTVKSHSLFLTQKDKEIIPGNLEDPSEFETPALSTKDSGNLYDSEIQNVLGVKHGHDMQPACQNDSKIGKKPRLNVCQKSEIIPETNQIYENDNKGVHDLEKDNFFSLTPKDKETISENLQVTNEFQTVDLLIKDNGNLCDYDTQNILELKKYVTDRKSAEQNESKINKLRNKVNWKTEIISEMNQIYEDNDKDAHVQESYTKDLDFKVNKSKQKLECQDIINKHYMEVNSNEKESCDQILDSYKVVKKRKKESSCKAKNILTKAKNKLASQLTESSQTSISLESDLKHITSEADSDPGNPVELCKTQKQSTTTLNKKDLPFVEEIKEGECQVKKVNKMTSKSKKRKTSIDPSPESHEVMERILDSVQGKSTVSEQADKENNLENEKMVKNKPDFYTKAFRSLSEIHSPNIQDSSFDSVREGLVPLSVSSGKNVIIKENFALECSPAFQVSDDEHEKMNKMKFKVNRRTQKSGIGDRPLQDLSNTSFVSNNTAESENKSEDLSSERTSRRRRCTPFYFKEPSLRDKMRR

Variants of: B1
Details: with md2l1_human MAD2L1, Q13257
Chain of md2l1_human MAD2L1, Q13257 (Q13257 whole entry): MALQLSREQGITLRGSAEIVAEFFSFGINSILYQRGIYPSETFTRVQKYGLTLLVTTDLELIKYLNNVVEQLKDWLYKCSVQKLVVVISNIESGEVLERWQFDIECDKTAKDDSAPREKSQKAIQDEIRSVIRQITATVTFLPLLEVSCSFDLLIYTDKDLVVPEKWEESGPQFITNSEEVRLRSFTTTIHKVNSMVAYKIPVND

Variant | effect of a mutation on the interaction
R153A | disrupting interaction

Variants of: B1
Details: with pp1a_human PPP1CA

Variant | effect of a mutation on the interaction
N58I | disrupting interaction
